Data: patent US20160304625A1

Columns and labels:
[1] = target: mIgM proximal domain peptide conjugated to keyhole limpet hemocyanin (human); assay: ELISA direct binding, mIgM-PD-KLH
[2] = target: mIgM proximal domain peptide conjugated to keyhole limpet hemocyanin (human); assay: competition ELISA on mIgM-PD-KLH, competitor unlabeled mAb 1
[3] = target: mIgM proximal domain peptide conjugated to keyhole limpet hemocyanin (human); assay: competition ELISA on mIgM-PD-KLH, competitor unlabeled mAb 2
[4] = target: mIgM proximal domain peptide conjugated to keyhole limpet hemocyanin (human); assay: competition ELISA on mIgM-PD-KLH, competitor unlabeled mAb 4
[5] = target: mIgM proximal domain peptide conjugated to keyhole limpet hemocyanin (human); assay: competition ELISA on KLH-mIgM-PD, competitor unlabeled mAb 1
[6] = target: mIgM proximal domain peptide conjugated to keyhole limpet hemocyanin (human); assay: competition ELISA on KLH-mIgM-PD, competitor unlabeled mAb 2
[7] = target: mIgM proximal domain peptide conjugated to keyhole limpet hemocyanin (human); assay: competition ELISA on mIgM-PD-KLH, competitor unlabeled mAb 3
[8] = target: mIgM proximal domain peptide conjugated to keyhole limpet hemocyanin (human); assay: ELISA, KLH-PDm
[9] = target: mIgM proximal domain peptide conjugated to keyhole limpet hemocyanin (human); assay: competition ELISA on KLH-mIgM-PD, competitor unlabeled mAb 4
[10] = target: mIgM proximal domain peptide conjugated to keyhole limpet hemocyanin (human); assay: competition ELISA on KLH-mIgM-PD, competitor unlabeled mAb 3

- ELISA reading [1]: 0.5
- mAb-HRP binding after blocking by unlabeled mAb [2]: 52
- mAb-HRP binding after blocking by unlabeled mAb [3]: 71
- mAb-HRP binding after blocking by unlabeled mAb [4]: 9
- mAb-HRP binding after blocking by unlabeled mAb [5]: 74
- mAb-HRP binding after blocking by unlabeled mAb [6]: 68
- mAb-HRP binding after blocking by unlabeled mAb [7]: 62
- ELISA reading [8]: 0.9
- mAb-HRP binding after blocking by unlabeled mAb [9]: 14
- mAb-HRP binding after blocking by unlabeled mAb [10]: 72
B1: monoclonal antibody mAb4-2b (antibody, mouse IgG1, V domains shown)
VH: EVQLEESGAELVKPGASLKLSCKASGYTFTSYWMNWVKQRPGQGLEWIGIIHPNSGSTNYNEKFKTKATLTVDKSSSTAYMQLSSLTSEDSAVYYCARTRGNYGMDYWGQGTSVTVSS
VL: DIVMTQSHKFMSTSVGDRVSITCKASQDVSTAVAWYQQKPGQSPTLLIYSASYRNTGVPDRFTGSGSGTDFTFTISSVQAEDLAVYYCQQHFSIPPLTFGAGTKLELKR
